Changes are numbered by the printed parent chain. Read-outs that look alike come from different tables or passages of the source. Values belong to the binder of their own block, whether it stands above or below them.
What was measured:
[1] = molecular target: Human CD16A 158V (human); assay: BLI
Target sequence in this assay (chain, as listed by the source): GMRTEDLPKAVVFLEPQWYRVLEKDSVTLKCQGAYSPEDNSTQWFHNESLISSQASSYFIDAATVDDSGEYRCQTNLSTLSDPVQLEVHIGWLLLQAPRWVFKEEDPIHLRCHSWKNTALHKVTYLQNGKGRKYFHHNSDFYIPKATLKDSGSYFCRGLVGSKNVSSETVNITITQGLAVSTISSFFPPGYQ

[2] = molecular target: Human CD16A 158F (human); assay: BLI
[3] = molecular target: Human CD16A 158F (human); assay: ELISA
Target sequence in this assay (chain, as listed by the source): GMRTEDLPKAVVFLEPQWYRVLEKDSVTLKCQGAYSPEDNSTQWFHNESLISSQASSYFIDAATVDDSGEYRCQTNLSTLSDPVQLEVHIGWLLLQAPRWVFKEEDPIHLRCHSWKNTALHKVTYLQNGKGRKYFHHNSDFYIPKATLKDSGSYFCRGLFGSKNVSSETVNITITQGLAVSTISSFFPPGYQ

[4] = molecular target: Human CD16A 158V (human); assay: ELISA
[5] = molecular target: Human CD16A 158V (human); assay: ELISA; remark: listed apart in the source
[6] = molecular target: T1, Human CD16B (human); assay: ELISA
T1 chain: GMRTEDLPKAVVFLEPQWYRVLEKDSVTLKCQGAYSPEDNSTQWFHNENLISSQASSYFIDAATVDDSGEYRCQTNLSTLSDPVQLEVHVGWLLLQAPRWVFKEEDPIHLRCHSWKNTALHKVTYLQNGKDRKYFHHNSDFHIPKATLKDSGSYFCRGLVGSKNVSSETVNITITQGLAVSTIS

B1: CD16-VH-RM72 (antibody)
chain: EVQLVESGGGLVQPGGSLRLSCAASGFTFSNYGMSWVRQAPGKGLEWIGSIYYSGQTNYNPSLKSLVTISRDNSKNTLYLQMNSLRAEDTATYYCARESIDYWGQGTLVTVSS
Kd [1]: 4.38 nM
Kd [2]: 4.58 nM
EC50 [3]: 1.89 nM
EC50 [4]: 1.86 nM

B7: CD16-VH-RM77 (antibody)
chain: B1 chain with S54N, Q56S
Kd [1]: 5.31 nM
Kd [2]: 1.24 nM
EC50 [3]: 1.21 nM
EC50 [4]: 1.42 nM

B8: CD16-VH-RM82 (antibody)
chain: B1 chain with G55V, Q56S
Kd [2]: 5.26 nM
EC50 [3]: 3.29 nM
EC50 [4]: 3.2 nM

B9: CD16-VH-RM76 (antibody)
chain: B1 chain with Q56E
Kd [1]: 16.2 nM
Kd [2]: 6.06 nM
EC50 [3]: 2.2 nM
EC50 [4]: 2.71 nM

More lines, now with the values ahead:

Kd [1]: 8.2 nM
Kd [2]: 2.41 nM
EC50 [3]: 3.29 nM
EC50 [4]: 4.2 nM
B2: CD16-VH-RM73 (antibody)
chain: B1 chain with Q56T

Kd [2]: 3.99 nM
EC50 [3]: 3.03 nM
EC50 [4]: 3.32 nM
B3: CD16-VH-RM80 (antibody)
chain: B1 chain with S54D, Q56S

Kd [1]: 2.69 nM
Kd [2]: 2.45 nM
EC50 [3]: 1.25 nM
EC50 [4]: 1.8 nM
B4: CD16-VH-RM81 (antibody)
chain: B1 chain with S54T, Q56S

Kd [1]: 3.51 nM
Kd [2]: 2.62 nM
EC50 [3]: 3.04 nM
EC50 [4]: 2.06 nM
B5: CD16-VH-RM75 (antibody)
chain: B1 chain with Q56D

Kd [1]: 20.6 nM
Kd [2]: 5.15 nM
EC50 [3]: 7.66 nM
EC50 [4]: 4.57 nM
B6: BM156-01 (antibody)
chain: B1 chain with Q56S

EC50 [5]: 45.1 nM
binding result [6]: no binding
B10: BM130-92 (Margetuximab) (antibody)
chain 1: QVQLQQSGPELVKPGASLKLSCTASGFNIKDTYIHWVKQRPEQGLEWIGRIYPTNGYTRYDPKFQDKATITADTSSNTAYLQVSRLTSEDTAVYYCSRWGGDGFYAMDYWGQGASVTVSSASTKGPSVFPLAPSSKSTSGGTAALGCLVKDYFPEPVTVSWNSGALTSGVHTFPAVLQSSGLYSLSSVVTVPSSSLGTQTYICNVNHKPSNTKVDKRVEPKSCDKTHTCPPCPAPELVGGPSVFLLPPKPKDTLMISRTPEVTCVVVDVSHEDPEVKFNWYVDGVEVHNAKTKPPEEQYNSTLRVVSVLTVLHQDWLNGKEYKCKVSNKALPAPIEKTISKAKGQPREPQVYTLPPSRDELTKNQVSLTCLVKGFYPSDIAVEWESNGQPENNYKTTPLVLDSDGSFFLYSKLTVDKSRWQQGNVFSCSVMHEALHNHYTQKSLSLSPGK
chain 2: DIVMTQSHKFMSTSVGDRVSITCKASQDVNTAVAWYQQKPGHSPKLLIYSASFRYTGVPDRFTGSRSGTDFTFTISSVQAEDLAVYYCQQHYTTPPTFGGGTKVEIKRTVAAPSVFIFPPSDEQLKSGTASVVCLLNNFYPREAKVQWKVDNALQSGNSQESVTEQDSKDSTYSLSSTLTLSKADYEKHKVYACEVTHQGLSSPVTKSFNRGEC
